According to article PMC9325769 (Nature Communications, 2022):

Columns and labels:
[1] = target: pHipTLp (HipTLp, Lpg2370) (Legionella pneumophila, UniProt Q5ZSZ6); assay: biochemical
[2] = target: co-expressed 6×His-tagged Lpg2369–Lpg2370 (HipTLp–HipSLp) complex (Legionella pneumophila) (UniProt Q5ZSZ7); assay: ITC
[3] = target: HipTLp (Lpg2370), 6×His-tagged, expressed alone (autophosphorylated, pHipTLp) (Legionella pneumophila) (UniProt Q5ZSZ6); assay: ITC

Nc1ncnc2c1ncn2[C@@H]1O[C@H](COP(=O)(O)OP(=O)(O)NP(=O)(O)O)[C@@H](O)[C@H]1O [AMP–PNP]
Kd [1]: ~70000 nM

HipBLp (Lpg2368) (from UniProt Q5ZSZ8 1-75) (natural protein)
Kd [2]: 1500 nM

HipSLp (Lpg2369), untagged wild type (6×His-tag cleaved with TEV protease) (from UniProt Q5ZSZ7 1-102) (natural protein)
Kd [3]: 42 nM
